Assay [1] addresses T1, human GFRα1 (R&D Systems, Fc-fusion protein) (human, UniProt P56159 25-429, limits assumed).
T1 construct: not shown: Fc part of the bought fusion protein
T1 sequence (looked up): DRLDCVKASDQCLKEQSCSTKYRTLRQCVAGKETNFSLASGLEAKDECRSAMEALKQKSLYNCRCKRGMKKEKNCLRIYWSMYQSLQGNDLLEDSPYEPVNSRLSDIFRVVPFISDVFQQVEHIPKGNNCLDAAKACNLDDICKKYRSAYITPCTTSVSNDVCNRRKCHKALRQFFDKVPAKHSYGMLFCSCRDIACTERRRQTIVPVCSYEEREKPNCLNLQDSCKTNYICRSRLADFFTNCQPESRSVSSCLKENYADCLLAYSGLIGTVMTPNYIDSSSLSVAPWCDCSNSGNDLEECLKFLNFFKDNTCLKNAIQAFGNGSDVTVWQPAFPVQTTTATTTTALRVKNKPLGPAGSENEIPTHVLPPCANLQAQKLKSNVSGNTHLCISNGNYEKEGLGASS
The assay is described as follows: ELISA with soluble Fab, HRP-anti human Fab detection (FIG. 3). A general note: In an ELISA, binding on a coated surface is turned into a signal by an enzyme label.

Assay [2] concerns the target T2, human GFRα2 (R&D Systems, Fc-fusion protein) (human, UniProt O00451 22-441, limits assumed).
T2 construct: not shown: Fc part of the bought fusion protein
T2 sequence (looked up): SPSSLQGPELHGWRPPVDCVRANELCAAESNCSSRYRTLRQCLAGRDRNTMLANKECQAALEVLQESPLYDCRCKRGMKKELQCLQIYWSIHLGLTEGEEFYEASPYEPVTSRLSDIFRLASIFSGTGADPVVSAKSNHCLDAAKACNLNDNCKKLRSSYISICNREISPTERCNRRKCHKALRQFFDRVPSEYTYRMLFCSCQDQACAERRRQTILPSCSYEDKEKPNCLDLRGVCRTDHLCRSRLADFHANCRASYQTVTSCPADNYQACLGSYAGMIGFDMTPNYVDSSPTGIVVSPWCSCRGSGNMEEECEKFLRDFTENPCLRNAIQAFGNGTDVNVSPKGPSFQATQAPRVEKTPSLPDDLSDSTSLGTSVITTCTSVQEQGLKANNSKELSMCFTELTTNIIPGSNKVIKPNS
The assay is described as above.

Assay [3] deals with T3, human GFRα3 (R&D Systems, Fc-fusion protein) (human, UniProt O60609 32-382, limits assumed).
T3 construct: not shown: Fc part of the bought fusion protein
T3 sequence (looked up): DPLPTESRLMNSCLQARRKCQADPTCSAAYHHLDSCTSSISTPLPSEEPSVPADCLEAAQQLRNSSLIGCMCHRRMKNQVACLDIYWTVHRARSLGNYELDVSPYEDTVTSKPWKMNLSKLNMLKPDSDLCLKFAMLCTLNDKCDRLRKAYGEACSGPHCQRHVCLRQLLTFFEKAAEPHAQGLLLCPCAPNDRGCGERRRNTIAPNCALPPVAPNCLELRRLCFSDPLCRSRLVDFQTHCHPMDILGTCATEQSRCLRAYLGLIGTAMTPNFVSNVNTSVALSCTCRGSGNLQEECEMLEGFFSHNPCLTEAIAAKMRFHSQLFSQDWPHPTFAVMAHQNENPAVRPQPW
The description is as above.

The target in assay [4] is T4, GFRα4 isoform a human Fc bivalent fusion protein (Asn24-Ser245, Factor Xa site, human IgG1 Fc fragment, … (human)).
T4 construct: also called GFRα4a; GFRalpha4 isoform a
T4 chain: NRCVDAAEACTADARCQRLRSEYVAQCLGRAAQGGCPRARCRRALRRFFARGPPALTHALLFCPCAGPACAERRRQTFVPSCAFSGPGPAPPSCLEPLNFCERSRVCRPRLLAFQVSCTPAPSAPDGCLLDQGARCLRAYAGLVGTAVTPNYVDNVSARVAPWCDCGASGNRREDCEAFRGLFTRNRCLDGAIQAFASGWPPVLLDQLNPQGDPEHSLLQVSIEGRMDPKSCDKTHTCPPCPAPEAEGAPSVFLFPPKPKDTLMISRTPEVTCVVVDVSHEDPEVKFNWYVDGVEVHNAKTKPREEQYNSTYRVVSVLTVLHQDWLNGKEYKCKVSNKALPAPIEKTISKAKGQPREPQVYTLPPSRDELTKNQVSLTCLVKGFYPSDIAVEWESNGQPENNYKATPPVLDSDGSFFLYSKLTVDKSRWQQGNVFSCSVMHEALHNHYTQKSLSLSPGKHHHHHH
Put plainly: ELISA, soluble recombinant human/rabbit chimeric Fab, HRP-anti human Fab detection (FIG. 3).

For assay [5], the target named is T5, GFRα4 isoform b human Fc bivalent fusion protein (Asn24-Val274, TEV site and linker, human IgG1 Fc fragment); … (human).
T5 construct: also called GFRα4b; GFRalpha4 isoform b
The description is as above.

B1: P4-6 recombinant human/rabbit chimeric Fab (Fab, V domains shown)
VH: EQLKESGGGLFKPTDTLTLTCTVSGFSLSYYGVNWVRQAPGNGLEWIGTIGGSGDTYYASWAKSRSTIIRNTNENTVTLKMTSLTAADTATYFCVRYANIGYEYFNVWGPGTLVTVSS
VL: QFVLTQSPSASAALGASAKLTCTLSSAHKTYTIDWYQQQKGKAPRYLIQVKSDGTYTKATGVPDRFSGSSSGADRYLIIPSVQADDEADYYCGTDYTGGYVFGGGTQLTVT
notes: Both formats are written under this one molecule; also called Fab P4-6; P4-6 phage antibody
For B1, the binding result in assay [1] is listed as “no binding”; in assay [2] it was “no binding”; in assay [3], “no binding”; in assay [4] it was “binds”; in assay [5] it was “binds”.

B2: P4-10 recombinant human/rabbit chimeric Fab (Fab, V domains shown)
VH: QSVKESEGGLFKPTDTLTLTCTVSGFSLSRHALTWVRQAPGNGLEWIGAIDNAGTTYYASWAKSRSTITRNTDLHTVTLKMTSLTASDTATYFCARVFYDINSGYYLDGMDLWGPGTLVTVSS
VL: QFVLTQSPSVSAALGASAKLTCTLSSAHKTYTIDWYQQQQGEAPRYLMQVKSDGSYTKGTGVPDRFSGSSSGADRYLIIPSVQADDEAGYVCGADDNGGYVFGGGTQLTVT
notes: Both formats are written under this one molecule; also called Fab P4-10; P4-10 phage antibody
In the case of B2, the binding result is “no binding” in assay [1]; “no binding” in assay [2]; “no binding” in assay [3]; “binds” in assay [4]; “binds” in assay [5].

These data come from patent US20240262884A1 (University of Pennsylvania, published 2024).
